Data reported in the DeepSol protein solubility set.

assay: soluble on expression in E. coli; label from the status in PepcDB or PDB records

Sequence | soluble on expression in E. coli
MAKVKRRDLLKAGAALAAAGTLGKGFAQEFYASPPTLLPRSRAPRVVVVGGGWGGTTVARKVKQQNPGVEVVLVEQKPIFMSCPMSNLFLAGVKPLEWLVFDYTNVVKDGVIFVQEKVLEINRDRRLVRTTGGYLAYDFLVLAPGIDYMYEAIPGYEEAKHFLPVGFKPFEHIALRRMLDRFDETGGELVMYIPPPPYRCPPGPYERAAMLAWRLKTKGVKGKVIVLDANPQPLAKAPGFLAAYNELYKDYLEYQPNMRITGLDYEKKVVRTELGDYPFTLANVIPPMKAAEIVRQAGLGERWANVRIPYFLSEADDRVYLVGDITGNTPYPKSGMIAYVSGTIVARHLTERLKGKPLAEIPPELPTNICYSFVDSEEAIWVSANYSWDEAEKRIKAQSQVDNQRSKANGEAAIGWALGLWNDMFGPA | soluble
MAKVLVLNASYEPLNITSWQRAVVLLIKGKAEQVEHNGKMVYNNFPLPTVIRLRHYVVTPYKEIPLTRRNILHRDGHSCQYCGYTGDELTLDHVIPKSRGGGETWENIVTACVRCNVKKGNRTPKEANMPLRQTPRRPISSLYFEVTKHVRTGTHQEWRKYVIGALEHHHHHH | not soluble
MAKYQELVEQLKRQIKSGIWHPGDKLPSLRRQSEHSGLSLMTVLHAYQILESQGWVTSQPRSGYRVAPNIKSSNEPQAPAAVSWTEQVDINEFIFDVLQASKNPSMINFGFAYPDPSLYPRYHVNRAMSAAARNMPISTTFDNLPPGNEQLRTIIAKRYAAKGIEISPDEIVITAGALEALTLSLQACTRPGDWVVVESPAFYGALQSLERLGLKALSVRTDPVTGIDLDSLERALQTHDVKACWLMSNFQNPLGFTLSNEKKQKLIELTQRYNVPVIEDDVYSELHAENDSVYPLRMFDDTGNTMLCSSFSKSLIAGLRIGWVAAGKRALEVQKLQLMSTLATSAPVQMTLVHYLTSRNYESHLKQLRKKLFERKSKMTNLLNELLPEEVKVLSQSGGYFIWLELPKHIDALQIYREALKDNISIAPGKMFSLTEQYDHCIRLNASFELNDKYVHALNLLANIIRDHLAK | not soluble
MALEFTTLPQLYAHDYDTVIDVRSPAEFAEDHLPGAINLPVLDNEERARVGTIYKQQSPFLARKLGAALVFRNAASHVEQSLSHHEGHWRPLVYCWRGGQRSGSFTWMLQQIGWRAEVVSGGYRTYRRLVNRYLYEDPLPHRLVALDGFTGTAKTEILARLPALGVQMLDLEALANHRGSLLGARPGGQPEQKAFESALAAALCRLDPTRPVVVEAESSRIGERILPPSLWAALCAAPRIEIEAPVAARSAYLTAAYDDILSDAETLTARLDPLRYHRGHAVVEGWLALVAAGDKHGVTRALMEQHYDPAYRKSRASHAVQVAARLRSDTLDHAGIDTLTAQVAAVLKAL | not soluble
MALICELDEQWSYVGSKARLHWLWYAYNTKTGGVLAYTFGPRTDQTCRELLALLTPFNIGMLTSDDWDSYGRVVPKNKHLTGKIFTQRIERNNLTLRTHIKRLARKQSASHAQLRSTKK | not soluble
MALKDLFSGFFVVEEEDDELEAPPEENEQQERQQPKQQAQSQNQFTEQPRNVNSERPRSIQSVPKKQSTRLQQSSGERKYQMNNTTSKNNARNVVNMNNQEQENYDFTQESSKMCLFEPRVFSDTQDIADELKNRRATLVNLQRIDKVSAKRIIDFLSGTVYAIGGDIQRVGSDIFLCTPDNVEVAGSITDQIENMEYQGELEHHHHHH | not soluble
MALKLPIPHNILILNRNSALELLRALKEVPKLIITRIPPDEWPDVAYTEYIWLSRVEGPNSVSPTALHVIIERAKTFLDENSGGVIYVDGIEYIMLYEEFKSVAKFLLTLKDIAVVKEGHLILHVDPKTLEDHQMAVLEREFVKINVEETIEKIRGPTLFGALIEEKGLEHHHHHH | soluble
MALLPAVRRYGRLTRATGLVLEATGLQLPLGATCIIERQDGPETKEVESEVVGFNGQRLFLMPLEEVEGILPGARVYARNGHGDGLQSGKQLPLGPALLGRVLDGGGKPLDGLPAPDTLETGALITPPFNPLQRTPIEHVLDTGVRAINALLTVGRGQRMGLFAGSGVGKSVLLGMMARYTRADVIVVGLIGERGREVKDFIENILGPDGRARSVVIAAPADVSPLLRMQGAAYATRIAEDFRDRGQHVLLIMDSLTRYAMAQREIALAIGEPPATKGYPPSVFAKLPALVERAGNGIHGGGSITAFYTVLTEGDDQQDPIADSARAILDGHIVLSRRLAEAGHYPAIDIEASISRAMTALITEQHYARVRLFKQLLSSFQRNRDLVSVGAYAKGSDPMLDKAITLWPQLEAFLQQGIFERADWEDSLQALDLIFPTV | soluble
MALQSSVRAFKKPPRPLVDEVRFLRSWIEKPLHMGAVMPSGKLLARTMARYVDIQSDGPVIELGPGTGAITNALVEHGVDQKRLVLLEFDPGFCALLRERFPLAKVVQGDAYRLRDSLWDALEIPATAVVSGLPLVTKPMLTRMKLIRDAFTLLEPGAPFVQFTYSVAPPIPKSLPGVSTEGSERIWMNVPPARVWVYRKRLEHHHHHH | not soluble
MALRFITAEEAAEFVHHNDNVGFSGFTPAGNPKVVPAAIAKRAIAAHEKGNPFKIGMFTGASTGARLDGVLAQADAVKFRTPYQSNKDLRNLINNGSTSYFDLHLSTLAQDLRYGFYGKVDVAIIEVADVTEDGKILPTTGVGILPTICRLADRIIVELNDKHPKEIMGMHDLCEPLDPPARRELPVYTPSDRIGKPYVQVDPAKIVGVVRTSEPNDESDFAPLDPVTQAIGDNVAAFLVSEMKAGRIPKDFLPLQSGVGNVANAVLGALGDNPDIPAFNMYTEVIQDAVIALMKKGRIKFASGCSLSVSRSVIQDIYANLDFFKDKILLRPQEYSNNPEIVRRLGVITINTALEADIFGNINSTHVSGTRMMNGIGGSGDFTRNSYVSIFTTPSVMKDGKISSFVPMVAHHDHSEHSVKVIISEWGVADLRGKNPRERAHEIIDKCVHPDYRPLLRQYLELGVKGQTPQNLDCCFAFHQELAKSGDMRNVRWEDYMK | not soluble
MALRNVPFRSEVLGWDPDSLADYFKKLNYKDCEKAVKKYHIDGARFLNLTENDIQKFPKLRVPILSKLSQEINKNEERRSIFTRKPQVPRFPEETESHEEDNGGWSSFEEDDYESPNDDQDGEDDGDYESPNEEEEAPVEDDADYEPPPSNDEEALQNSILPAKPFPNSNSMYIDRPPSGKTPQQPPVPPQRPMAALPPPPAGRNHSPLPPPQTNHEEPSRSRNHKTAKLPAPSIDRSTKPPLDRSLAPFDREPFTLGKKPPFSDKPSIPAGRSLGEHLPKIQKPPLPPTTERHERSSPLPGKKPPVPKHGWGPDRRENDEDDVHQRPLPQPALLPMSSNTFPSRSTKPSPMNPLPSSHMPGAFSESNSSFPQSASLPPYFSQGPSNRPPIRAEGRNFPLPLPNKPRPPSPAEEENSLNEEWYVSYITRPEAEAALRKINQDGTFLVRDSSKKTTTNPYVLMVLYKDKVYNIQIRYQKESQVYLLGTGLRGKEDFLSVSDIIDYFRKMPLLLIDGKNRGSRYQCTLTHAAGYP | soluble
MALVNEHFLKLPGSYLFSDIAKKVNTFKITHPKQDIIRLGIGDVTQPLPKACIEAMHKAVEELASKDTFRGYGPEQGYDFLIEAIIKNDFAPRGIHFSPSEIFVNDGAKSDTGNIGDILRHDNSVGVTDPIYPVYIDSNVMCGRAGVLEEGTGKWSNVTYMPCTSENDFIPEIPDKRIDIVYLCYPNNPTGTTLTKPELKKWVDYALANDTLILFDAAYEAYIQDADVPHSIYEIKGAKKCAIEFRSFSKTAGFTGVRCGYTVVPKELTAATLEGDRIPLNKLWNRRQCTKFNGTSYITQRAAEAVYSTEGKAQIKETINYYMSNAKIMKEGLEATGLKVYGGVNAPYLWVKTPNGLSSWRFFEQMLYEANVVGTPGVGFGPSGEGYIRLTAFGDHNDCMEAMRRIKNWL | not soluble
MALWGGRFSQAADQRFKQFNDSLRFDYRLAEQDIIGSVAWSKALVTVGVLNADEQQQLEQALSVLLEEVQANPHAILASDAEDIHSWVETKLIDKVGDLGKKLHTGRSRNDQVATDLKLWCKFQITELQTAVQQLQQALVMTAEANQDAVMPGYTHLQRAQPVTFAHWCLAYVEMLSRDESRLQDTLKRLDVSPLGCGALAGTAYAIDREQLAGWLGFASATRNSLDSVSDRDHVLELLSDASIGMVHLSRFAEDLIFFNSGEAAFVDLSDRVTSGSSLMPQKKNPDALELIRGKCGRVQGALTGMTMTLKGLPLAYNKDMQEDKEGLFDALDTWLDCLHMAALVLDGIQVKRPRCKEAAEQGYANATELADYLVAKGVPFREAHHIVGEAVVEAIRQGKALEALALSDLQQFSSVIGDDVYPILALQSCLDKRVAKGGVSPQQVASAIAEAKARLF | not soluble
MALWVDKYRPKDLLGKDGVDYHIEQANHLKFLSADCMPHLLFCGPSGAGKKTRIKCLLRELYGVGVEKTQLIMKSFTSPSNKKLEIQTVSSNYHIEMTPSDVGIYDRVVVQDLVKEMAQTSQIESTSQRSFKVVVLCEADSLTRDAQHGLRRTMEKYANNCKIVLSCESLSRIIEPLQSRCIIINVPAPTDEDVTKVLRKVIERESFLLPENVLQKIVEKSEGNLRRAILMTEALRMENESGVAESVVIPVPEWEIYIQETARLILQKQSSDMLLKVRERLYELLSRCIPPTVIFKKLLEHLLPKCPPQIAREVVSEAAKFEHRLVLGQKAIFHLEGFVAAFMDIYLTNASKPK | not soluble
MAMHPRKDWYELTRATNWTPSYVTEEQLFPERMSGHMGIPLEKWESYDEPYKTSYPEYVSIQREKDAGAYSVKAALERAKIYENSDPGWISTLKSHYGAIAVGEYAAVTGEGRMARFSKAPGNRNMATFGMMDELRHGQLQLFFPHEYCKKDRQFDWAWRAYHSNEWAAIAAKHFFDDIITGRDAISVAIMLTFSFETGFTNMQFLGLAADAAEAGDYTFANLISSIQTDESRHAQQGGPALQLLIENGKREEAQKKVDMAIWRAWRLFAVLTGPVMDYYTPLEDRSQSFKEFMYEWIIGQFERSLIDLGLDKPWYWDLFLKDIDELHHSYHMGVWYWRTTAWWNPAAGVTPEERDWLEEKYPGWNKRWGRCWDVITENVLNDRMDLVSPETLPSVCNMSQIPLVGVPGDDWNIEVFSLEHNGRLYHFGSEVDRWVFQQDPVQYQNHMNIVDRFLAGQIQPMTLEGALKYMGFQSIEEMGKDAHDFAWADKCKPAMKKSA | soluble
MAMSQQDLPTLFYSGKSNSAVPIISESELQTITAEPWLEISKKGLQLEGLNFDRQGQLFLLDVFEGNIFKINPETKEIKRPFVSHKANPAAIKIHKDGRLFVCYLGDFKSTGGIFAATENGDNLQDIIEDLSTAYCIDDMVFDSKGGFYFTDFRGYSTNPLGGVYYVSPDFRTVTPIIQNISVANGIALSTDEKVLWVTETTANRLHRIALEDDGVTIQPFGATIPYYFTGHEGPDSCCIDSDDNLYVAMYGQGRVLVFNKRGYPIGQILIPGRDEGHMLRSTHPQFIPGTNQLIICSNDIEMGGGSMLYTVNGFAKGHQSFQFQLEHHHHHH | soluble
MAMSRQCTHYGRWPQHGFTSLKKLTPQSVTSRIQPGTDVIVCAEMDEHWGYFCAKKRQRWLVDTYDKIRRTDVDHVFGERTLATLERLLSLLSAFEVAVWMTDGWPLYESRLKGKLHVISKRYTQRIERHNLNLRQHLARLVRKSLSFSKSVELHSGIILEHHHHHH | not soluble
MAMTKLDATLAMLKELTDARGIAGNEREPREVMKKYIEPFADELSTDNLGSLVAKKVGEENGPKIMVAGHLDEVGFMITQIDDKGFLRFQTVGGWWSQVMLAQRVTIVTRKGDVTGVIGSKPPHILPPEARKKPVEIKDMFIDIGASSQEEAMEWGVRPGDQVVPYFEFQVMKNEKMLLAKAWDNRIGCAIAIDVLKQLKDEKHPNVVYGVGTVQEEVGLRGAKTSANYIKPDIAFAVDVGIAGDTPGVTSKEAQSKMGDGPQIILYDASVIGHTGLRDFVVDVADELQIPYQYDSVAGGGTDAGAIHIAVNGIPSMAITIATRYIHSHAAMLHRDDYENAVKLIVEVIKRLDKEAVHNITFN | not soluble
